In assay [1] the target is b12 chimeric IgG, mature heavy chain paired with the germline light chain (human). Description: BLI; antibody-capture kinetics: IgG on biosensors, 2-fold serial dilutions of Env; mean of curves with R^2 >= 0.95. A general note: BLI is a label-free optical method that tracks binding on a fibre tip over time.
In assay [2] the target is mature IgG b12 (human). Described as above.
For assay [3], the target named is b12 chimeric IgG, germline heavy chain paired with the mature light chain (human). The description is as above.
Chain of b12 chimeric IgG, germline heavy chain paired with the mature light chain (human) (heavy, as listed by the source, chain 1 of 2): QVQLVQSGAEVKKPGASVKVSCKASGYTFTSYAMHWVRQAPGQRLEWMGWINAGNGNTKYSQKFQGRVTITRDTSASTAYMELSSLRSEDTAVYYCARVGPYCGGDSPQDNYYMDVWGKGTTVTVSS
Chain of b12 chimeric IgG, germline heavy chain paired with the mature light chain (human) (light, as listed by the source, chain 2 of 2): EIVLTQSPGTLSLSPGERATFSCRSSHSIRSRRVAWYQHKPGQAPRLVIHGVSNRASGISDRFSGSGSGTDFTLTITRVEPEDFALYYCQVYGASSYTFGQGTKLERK
Assay [4] concerns the target QH0692 gp120 (HIV-1 (clade B, isolate QH0692)).
Assay [5] has as its target HXB2 gp120 (HIV-1 clade B, isolate HXB2) (UniProt P04578).

Chain of mature IgG b12 (human) (heavy, as listed by the source, chain 1 of 2): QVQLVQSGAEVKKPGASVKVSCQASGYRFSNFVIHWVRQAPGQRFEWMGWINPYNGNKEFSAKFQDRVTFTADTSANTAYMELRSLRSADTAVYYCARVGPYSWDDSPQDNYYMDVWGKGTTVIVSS
Chain of b12 chimeric IgG, mature heavy chain paired with the germline light chain (human) (light, as listed by the source, chain 2 of 2): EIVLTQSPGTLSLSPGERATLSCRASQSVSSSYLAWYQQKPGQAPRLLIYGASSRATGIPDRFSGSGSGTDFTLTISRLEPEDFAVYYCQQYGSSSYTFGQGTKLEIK

For QH0692 gp120 (natural protein), the Ka was determined as 7.56e+06 M⁻¹ in assay [1], 2e+09 M⁻¹ in assay [2] and 1.39e+07 M⁻¹ in assay [3]. Besides, in assay [2], the Kd came out at 2 nM.
In turn, mature IgG b12 (antibody) registered a neutralisation of QH0692 virions (luciferase reporter cells), IC50 in assay [4] of 0.22 µg/mL. In assay [5], this substance yielded a neutralisation of HXB2 virions (luciferase reporter cells), IC50 of 2 ng/mL.

For orientation: Kd means a measure of binding affinity in units of concentration. The low end stands for a tighter complex, the high end for a looser complex.

Source of the values: publication PMC3536657.
